Results from the supplement of paper PMC10065799, “High-throughput profiling of sequence recognition by tyrosine kinases and SH2 domains using bacterial peptide display” (eLife, 2023).

Columns and labels:
SHP2-C SH2 = assay: SH2 binding enrichment of the phosphorylated peptide, bacterial display (enrichment ratio); higher = better substrate or ligand; peptides without Tyr show the background
Grb2 SH2 = Grb2 SH2 (UniProt P62993); assay: as above
c-Src SH2 = assay: as above
c-Abl (mouse) = assay: phosphorylation enrichment, bacterial display (enrichment ratio); higher = better substrate or ligand; peptides without Tyr show the background
Fer (mouse) = assay: as above
MERTK = MERTK (UniProt Q12866); assay: as above
AncSZ = assay: as above
Fes = Fes (UniProt P07332); assay: as above
Fyn = Fyn (UniProt P06241); assay: as above
FGFR1 = FGFR1 (UniProt P11362); assay: as above
EPHB2 = EPHB2 (UniProt P29323); assay: as above
c-Src = assay: as above
FGFR3 = FGFR3 (UniProt P22607); assay: as above
Hck = Hck (UniProt P08631); assay: as above
EPHB1 = EPHB1 (UniProt P54762); assay: as above
Jak2 = Jak2 (UniProt O60674); assay: as above
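For SH2 binding enrichment of the phosphorylated peptide, bacterial display in this document: peptide library displayed on the E. coli surface as eCPX fusions, selected cells deep-sequenced, score is each peptide's frequency after selection divided by its frequency in the input.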
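For phosphorylation enrichment, bacterial display in this document: 11-residue human phosphosite peptides and single-mutation variants displayed on the E. coli surface, counted by deep sequencing, each peptide's frequency after selection divided by its frequency in the unselected input library; frequency after pTyr selection over input frequency; kinase dosed for 20-30% of maximal phosphorylation in three min.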

Sequence of FGFR3 (P22607 whole entry, looked up): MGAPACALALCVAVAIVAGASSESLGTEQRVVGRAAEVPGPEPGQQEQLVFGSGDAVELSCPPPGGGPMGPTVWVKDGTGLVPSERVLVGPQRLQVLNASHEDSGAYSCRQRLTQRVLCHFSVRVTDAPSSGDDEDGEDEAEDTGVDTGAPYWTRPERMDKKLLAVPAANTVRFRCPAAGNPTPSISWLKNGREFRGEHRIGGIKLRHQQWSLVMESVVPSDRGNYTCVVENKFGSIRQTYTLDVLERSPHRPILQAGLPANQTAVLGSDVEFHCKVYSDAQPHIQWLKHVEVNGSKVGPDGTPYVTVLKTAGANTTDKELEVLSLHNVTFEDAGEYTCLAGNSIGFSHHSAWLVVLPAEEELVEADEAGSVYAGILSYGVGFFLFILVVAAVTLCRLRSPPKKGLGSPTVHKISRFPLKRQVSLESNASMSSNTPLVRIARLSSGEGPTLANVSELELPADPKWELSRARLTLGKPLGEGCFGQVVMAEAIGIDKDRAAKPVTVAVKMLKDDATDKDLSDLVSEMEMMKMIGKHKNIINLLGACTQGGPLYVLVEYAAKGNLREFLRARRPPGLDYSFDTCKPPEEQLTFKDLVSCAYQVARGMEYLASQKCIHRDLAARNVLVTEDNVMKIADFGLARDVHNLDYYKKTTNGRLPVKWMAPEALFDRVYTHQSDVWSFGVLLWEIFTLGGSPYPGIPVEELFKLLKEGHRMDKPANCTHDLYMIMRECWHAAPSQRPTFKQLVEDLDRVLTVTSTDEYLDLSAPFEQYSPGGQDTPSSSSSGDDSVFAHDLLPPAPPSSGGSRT
Sequence of MERTK (Q12866 whole entry, looked up): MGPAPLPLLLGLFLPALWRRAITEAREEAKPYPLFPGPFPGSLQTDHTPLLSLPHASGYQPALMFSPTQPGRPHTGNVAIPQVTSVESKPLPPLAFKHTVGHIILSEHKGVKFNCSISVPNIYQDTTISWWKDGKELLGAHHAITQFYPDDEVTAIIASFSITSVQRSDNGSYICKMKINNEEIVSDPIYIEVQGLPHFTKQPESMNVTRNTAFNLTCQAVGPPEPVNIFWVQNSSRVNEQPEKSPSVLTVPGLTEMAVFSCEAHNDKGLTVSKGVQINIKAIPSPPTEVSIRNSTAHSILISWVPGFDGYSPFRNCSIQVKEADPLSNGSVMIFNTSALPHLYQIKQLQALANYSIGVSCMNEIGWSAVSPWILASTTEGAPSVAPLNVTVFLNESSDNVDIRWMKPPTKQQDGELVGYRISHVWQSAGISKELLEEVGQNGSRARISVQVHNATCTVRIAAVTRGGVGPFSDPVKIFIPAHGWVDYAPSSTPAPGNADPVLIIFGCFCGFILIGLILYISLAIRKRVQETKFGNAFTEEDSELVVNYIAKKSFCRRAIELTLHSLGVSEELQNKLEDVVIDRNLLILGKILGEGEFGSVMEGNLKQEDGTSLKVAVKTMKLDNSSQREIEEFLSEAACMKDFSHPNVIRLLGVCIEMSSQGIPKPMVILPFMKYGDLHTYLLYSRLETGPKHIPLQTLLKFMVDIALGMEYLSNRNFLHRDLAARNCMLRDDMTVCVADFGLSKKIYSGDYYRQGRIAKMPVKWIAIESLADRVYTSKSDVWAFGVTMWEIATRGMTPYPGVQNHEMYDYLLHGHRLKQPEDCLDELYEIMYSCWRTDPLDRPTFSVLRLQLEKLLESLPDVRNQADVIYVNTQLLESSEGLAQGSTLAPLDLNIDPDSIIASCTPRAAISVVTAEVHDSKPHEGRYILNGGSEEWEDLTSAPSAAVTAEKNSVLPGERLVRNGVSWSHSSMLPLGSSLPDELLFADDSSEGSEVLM
Sequence of EPHB2 (P29323 whole entry, looked up): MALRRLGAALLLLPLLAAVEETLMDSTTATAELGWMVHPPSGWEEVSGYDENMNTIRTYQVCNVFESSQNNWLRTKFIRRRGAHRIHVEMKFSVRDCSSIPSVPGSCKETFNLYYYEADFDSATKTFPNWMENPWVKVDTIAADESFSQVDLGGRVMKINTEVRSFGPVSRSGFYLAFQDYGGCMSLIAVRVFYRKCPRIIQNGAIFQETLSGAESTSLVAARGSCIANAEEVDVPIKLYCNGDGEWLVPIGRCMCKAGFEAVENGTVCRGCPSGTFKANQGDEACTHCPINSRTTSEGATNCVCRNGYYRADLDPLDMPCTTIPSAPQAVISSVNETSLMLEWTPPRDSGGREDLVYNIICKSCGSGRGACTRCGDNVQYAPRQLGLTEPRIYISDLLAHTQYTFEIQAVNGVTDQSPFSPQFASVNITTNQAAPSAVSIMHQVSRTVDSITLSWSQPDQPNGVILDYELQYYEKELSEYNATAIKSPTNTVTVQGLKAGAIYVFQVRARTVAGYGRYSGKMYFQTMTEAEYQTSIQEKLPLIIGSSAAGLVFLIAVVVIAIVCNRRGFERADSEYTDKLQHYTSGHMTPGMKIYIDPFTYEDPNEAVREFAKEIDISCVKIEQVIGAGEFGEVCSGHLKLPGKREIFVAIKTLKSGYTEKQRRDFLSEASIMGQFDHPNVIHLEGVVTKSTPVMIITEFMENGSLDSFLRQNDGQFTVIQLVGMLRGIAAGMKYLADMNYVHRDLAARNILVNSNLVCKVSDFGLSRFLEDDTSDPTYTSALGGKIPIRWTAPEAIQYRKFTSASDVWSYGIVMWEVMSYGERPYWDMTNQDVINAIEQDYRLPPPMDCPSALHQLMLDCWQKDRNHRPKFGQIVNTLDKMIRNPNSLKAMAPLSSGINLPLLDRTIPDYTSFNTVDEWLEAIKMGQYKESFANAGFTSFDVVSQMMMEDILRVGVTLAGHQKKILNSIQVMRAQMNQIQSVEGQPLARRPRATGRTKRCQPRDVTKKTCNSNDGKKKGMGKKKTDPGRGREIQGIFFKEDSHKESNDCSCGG
Sequence of Grb2 SH2 (P62993 whole entry, looked up): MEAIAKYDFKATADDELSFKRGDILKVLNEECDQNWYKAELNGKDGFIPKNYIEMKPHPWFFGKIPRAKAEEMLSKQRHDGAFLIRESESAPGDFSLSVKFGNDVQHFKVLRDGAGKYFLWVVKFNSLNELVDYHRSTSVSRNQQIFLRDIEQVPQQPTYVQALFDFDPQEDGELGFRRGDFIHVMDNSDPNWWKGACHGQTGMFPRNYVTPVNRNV
Sequence of FGFR1 (P11362 whole entry, looked up): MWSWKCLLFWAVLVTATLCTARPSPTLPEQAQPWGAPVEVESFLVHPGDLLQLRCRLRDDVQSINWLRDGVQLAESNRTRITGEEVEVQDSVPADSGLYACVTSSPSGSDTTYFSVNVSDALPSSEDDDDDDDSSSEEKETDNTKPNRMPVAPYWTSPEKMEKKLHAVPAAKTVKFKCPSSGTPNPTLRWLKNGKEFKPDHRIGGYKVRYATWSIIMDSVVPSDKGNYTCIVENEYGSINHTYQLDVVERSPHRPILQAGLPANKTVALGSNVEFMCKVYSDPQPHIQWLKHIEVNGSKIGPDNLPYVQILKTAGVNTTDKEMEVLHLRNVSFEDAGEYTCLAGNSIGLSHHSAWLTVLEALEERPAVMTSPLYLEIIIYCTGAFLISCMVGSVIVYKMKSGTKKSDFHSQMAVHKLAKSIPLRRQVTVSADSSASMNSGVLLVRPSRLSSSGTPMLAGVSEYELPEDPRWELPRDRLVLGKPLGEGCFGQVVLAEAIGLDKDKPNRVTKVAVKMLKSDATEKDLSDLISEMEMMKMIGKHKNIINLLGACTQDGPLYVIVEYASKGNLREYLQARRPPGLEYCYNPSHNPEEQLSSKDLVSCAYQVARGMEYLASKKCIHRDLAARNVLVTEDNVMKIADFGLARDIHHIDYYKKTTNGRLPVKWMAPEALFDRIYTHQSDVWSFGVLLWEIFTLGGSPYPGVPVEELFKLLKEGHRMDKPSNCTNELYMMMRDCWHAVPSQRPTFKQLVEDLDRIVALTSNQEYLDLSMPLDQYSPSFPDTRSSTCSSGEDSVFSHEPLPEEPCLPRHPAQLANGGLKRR
Sequence of Hck (P08631 whole entry, looked up): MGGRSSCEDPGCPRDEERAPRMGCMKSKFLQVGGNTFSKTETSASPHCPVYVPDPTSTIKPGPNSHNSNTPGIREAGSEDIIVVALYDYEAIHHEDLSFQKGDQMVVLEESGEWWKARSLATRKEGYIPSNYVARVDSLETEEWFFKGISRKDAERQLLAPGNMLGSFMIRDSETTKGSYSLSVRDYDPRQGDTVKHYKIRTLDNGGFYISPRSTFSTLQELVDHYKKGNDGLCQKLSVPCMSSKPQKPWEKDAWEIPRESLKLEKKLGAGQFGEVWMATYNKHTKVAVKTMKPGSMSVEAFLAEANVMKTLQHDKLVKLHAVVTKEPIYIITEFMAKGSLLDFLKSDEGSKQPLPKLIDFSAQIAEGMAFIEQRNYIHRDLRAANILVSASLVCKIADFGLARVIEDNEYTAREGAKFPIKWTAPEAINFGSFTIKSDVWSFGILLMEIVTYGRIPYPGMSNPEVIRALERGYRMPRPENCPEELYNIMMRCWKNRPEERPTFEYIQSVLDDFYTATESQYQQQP
Sequence of Fyn (P06241 whole entry, looked up): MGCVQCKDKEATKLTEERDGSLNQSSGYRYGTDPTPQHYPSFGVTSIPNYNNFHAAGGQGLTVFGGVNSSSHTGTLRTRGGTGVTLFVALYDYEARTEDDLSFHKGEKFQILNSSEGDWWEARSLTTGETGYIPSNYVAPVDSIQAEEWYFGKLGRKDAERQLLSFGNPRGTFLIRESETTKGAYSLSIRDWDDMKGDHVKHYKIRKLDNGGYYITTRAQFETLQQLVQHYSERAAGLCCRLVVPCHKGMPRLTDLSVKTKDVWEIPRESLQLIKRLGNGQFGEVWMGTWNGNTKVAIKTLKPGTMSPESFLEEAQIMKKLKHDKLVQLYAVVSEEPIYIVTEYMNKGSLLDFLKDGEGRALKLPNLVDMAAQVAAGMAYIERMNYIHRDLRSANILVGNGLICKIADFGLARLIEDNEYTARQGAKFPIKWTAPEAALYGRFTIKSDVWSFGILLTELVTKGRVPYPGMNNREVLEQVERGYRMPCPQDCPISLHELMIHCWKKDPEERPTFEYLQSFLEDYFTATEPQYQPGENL

Sequence | SH2 binding enrichment (SHP2-C SH2) | SH2 binding enrichment (Grb2 SH2) | SH2 binding enrichment (c-Src SH2) | phosphorylation enrichment (c-Abl (mouse)) | phosphorylation enrichment (Fer (mouse)) | phosphorylation enrichment (MERTK) | phosphorylation enrichment (AncSZ) | phosphorylation enrichment (Fes) | phosphorylation enrichment (Fyn) | phosphorylation enrichment (FGFR1) | phosphorylation enrichment (EPHB2) | phosphorylation enrichment (c-Src) | phosphorylation enrichment (FGFR3) | phosphorylation enrichment (Hck) | phosphorylation enrichment (EPHB1) | phosphorylation enrichment (Jak2)
PIFLFYLMDLS [ITGB2_Y131_D128Y_YF] | 0.874 | 0.61 | 0.567 | 1.91 | 1.24 | 0.914 | 2.78 | 3.28 | 0.613 | 0.702 | 1.01 | 1.12 | 1.31 | 0.95 | 2.51 | 3.98
SVTCTYSPVLN [TP53_Y126_A129V] | 0.683 | 0.78 | 0.538 | 0.804 | 1.02 | 0.435 | 1.37 | 1.6 | 0.613 | 0.558 | 0.692 | 0.815 | 0.831 | 0.876 | 0.795 | 1.21
FSAGTYPRLEE [SYCN_Y108] | 0.612 | 0.783 | 1.18 | 0.672 | 0.464 | 0.372 | 0.765 | 0.918 | 0.41 | 0.464 | 0.464 | 0.392 | 0.659 | 0.406 | 0.493 | 0.828
ANFAKYGNPNE [BCHE_Y505] | 0.6 | 0.784 | 0.382 | 0.357 | 0.406 | 0.361 | 0.561 | 0.549 | 0.307 | 0.462 | 0.331 | 0.461 | 0.426 | 0.362 | 0.384 | 0.372
PLDGESFTLQI [TP53_Y327_Y327S] | 0.706 | 0.663 | 0.422 | 1.23 | 0.552 | 0.549 | 1.64 | 1.67 | 0.569 | 0.634 | 0.93 | 0.616 | 1.05 | 0.619 | 0.731 | 1.26
YSTSPYLLEAA [BRIP1_Y921] | 1.15 | 0.657 | 0.629 | 0.959 | 0.53 | 1.38 | 0.887 | 0.931 | 4.67 | 0.551 | 0.518 | 2.21 | 0.604 | 1.08 | 0.544 | 0.694
RSRQIYDAYIM [GRK3_Y109] | 0.727 | 0.822 | 0.683 | 6.11 | 14.6 | 8.17 | 0.914 | 0.807 | 15.2 | 0.511 | 6.14 | 11 | 0.8 | 10.4 | 3 | 1.15
AQADIYKANFQ [IKBKG_Y308_D311N] | 0.729 | 0.873 | 0.504 | 0.761 | 0.461 | 0.461 | 0.586 | 0.81 | 0.536 | 0.389 | 0.408 | 0.799 | 0.573 | 0.659 | 0.361 | 0.829
SGRSGYCLGTR [SCO1_Y60_P58S] | 0.752 | 1.19 | 1.01 | 0.514 | 0.399 | 0.55 | 0.586 | 0.834 | 0.341 | 0.518 | 0.535 | 0.424 | 0.432 | 0.348 | 0.309 | 0.617
MGHVNYGAFIN [GLB1_Y485_R482H_YF] | 0.804 | 0.882 | 0.44 | 0.565 | 0.406 | 0.391 | 0.611 | 0.756 | 0.672 | 0.449 | 0.615 | 0.706 | 0.505 | 0.609 | 0.565 | 0.72
QPEDIYHQTWA [GBA_Y244_G241E] | 0.93 | 1.09 | 0.61 | 9.69 | 3.02 | 3.42 | 2 | 1.09 | 7.34 | 6.95 | 0.673 | 5.92 | 4.93 | 4.47 | 0.843 | 0.955
FADIAYNYHHG [PAH_Y166_R169H] | 0.654 | 0.751 | 0.477 | 0.415 | 0.443 | 0.462 | 0.643 | 0.803 | 0.469 | 0.433 | 0.385 | 0.638 | 0.525 | 0.494 | 0.387 | 0.567
ARQEEYSAMRD [KRAS_Y64_G60R] | 0.729 | 0.824 | 0.804 | 0.837 | 0.387 | 0.497 | 0.962 | 0.902 | 0.429 | 0.518 | 0.563 | 0.497 | 0.584 | 0.488 | 0.508 | 0.896
KAEQLYIGVTV [EFHC2_Y509_E507Q] | 0.733 | 0.708 | 0.454 | 0.876 | 6.51 | 2.99 | 1.84 | 1.25 | 2.33 | 3.47 | 0.758 | 2.33 | 2.88 | 3.03 | 1.27 | 0.964
TRYDEYLEVTK [MAP1A_Y2217_H2214Y] | 0.506 | 0.777 | 1.02 | 0.909 | 0.592 | 0.425 | 1.31 | 1.25 | 0.519 | 0.901 | 0.884 | 0.538 | 0.872 | 0.539 | 0.98 | 1.16
TGDFGYRTPGY [TNS2_Y668_A670T] | 0.889 | 0.762 | 0.466 | 0.459 | 0.342 | 0.481 | 0.524 | 0.651 | 0.479 | 0.404 | 0.423 | 0.432 | 0.465 | 0.394 | 0.4 | 0.484
